Data as given in patent US20080293915A1 (published 2008).
Ends that are not written are not given here.

Target: T1, human GABAC receptor rho1 subunit expressed on stably transfected neuroblastoma cells (human, UniProt P24046 22-479)
T1 construct: whole, on cells; the pentameric state on these cells was not measured; also called GABAC human ρ1; GABAC-transfected neuroblastoma cells
Experiment: phage display panning (Ph.D-12 library): subtraction on non-transfected neuroblastoma cells, then three rounds on GABAC-transfected neuroblastoma cells; clones sequenced
Description: Screening of phage display peptides with GABAC-expressing cells MAY employ phage display to identify 12-mer peptide sequences that can serve as an NNP anchoring element. GABAC-transfected neuroblastoma cells have yielded sequences of peptides that preferentially bind to GABAC-expressing cells. For phage selection, we used a screening method similar to that previously used to identify phages that bind to ErbB receptors (Stortelers et al., 2003). Briefly, 2×10¹⁰ phages (Ph.D-12 library from New England Biolabs, MA) were incubated with control, non-transfected neuroblastoma cells in binding buffer (PBS containing 0.2% BSA, 0.05% Tween 20) for 2 hr. Non-bound phages were collected and then incubated with GABAC-transfected neuroblastoma cells for 2 hr. After rinsing several times with washing buffer (0.05% Tween 20 in PBS), bound phages were eluted using an acidic glycine buffer (50 mM glycine, 150 mM NaCl, pH 2.7) and neutralized with 1 M Tris, pH 8. After phage titration of the eluate, we performed a second and then a third round of bio-panning using the GABAC-transfected neuroblastoma cells. After the third round of panning, DNA isolated from individual phage plaques was sequenced. […] The 7 illustrated sequences represent individual phage clones from a total of 36 sequenced clones.

T1 sequence (P24046 22-479): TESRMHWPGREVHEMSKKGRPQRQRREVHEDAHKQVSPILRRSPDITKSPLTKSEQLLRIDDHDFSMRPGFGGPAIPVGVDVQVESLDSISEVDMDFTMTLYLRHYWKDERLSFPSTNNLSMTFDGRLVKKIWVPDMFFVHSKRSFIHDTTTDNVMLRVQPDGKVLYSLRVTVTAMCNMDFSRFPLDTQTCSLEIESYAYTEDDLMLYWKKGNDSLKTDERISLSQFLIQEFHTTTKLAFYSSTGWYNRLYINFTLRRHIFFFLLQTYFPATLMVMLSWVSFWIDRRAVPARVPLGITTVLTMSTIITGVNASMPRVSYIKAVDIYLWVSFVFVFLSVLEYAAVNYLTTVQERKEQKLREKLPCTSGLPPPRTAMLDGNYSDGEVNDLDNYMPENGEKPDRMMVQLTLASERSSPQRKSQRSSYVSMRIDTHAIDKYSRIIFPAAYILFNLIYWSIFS

Row | Binder | binding result
1 | HETAVRQTSPPM (not fully specified, no synthetic peptide was tested; also called Phage ID 20; Phage ID 22; not shown: protein III of bacteriophage M13 (Ph.D-12 library, New England Biolabs); any li) [Phage-displayed 12-mer peptide HETAVRQTSPPM (Group A; Phage ID 9, 20, 22)] | binds
2 | HETACRQTSPPM (not fully specified, not shown: protein III of bacteriophage M13 (Ph.D-12 library, New England Biolabs); any li) [Phage-displayed 12-mer peptide HETACRQTSPPM (Group A; Phage ID 11)] | binds
3 | HPKQSLHFPDLS (not fully specified, not shown: protein III of bacteriophage M13 (Ph.D-12 library, New England Biolabs); any li) [Phage-displayed 12-mer peptide HPKQSLHFPDLS (Group B; Phage ID 6)] | binds
4 | HPYDSLHFPRMS (not fully specified, also called Phage ID 6-1; not shown: protein III of bacteriophage M13 (Ph.D-12 library, New England Biolabs); any li) [Phage-displayed 12-mer peptide HPYDSLHFPRMS (Group B; Phage ID 4, 6-1)] | binds
